Our source for the Kd values is PMC10714925.

This series has as its system Clp-GST (Xanthomonas oryzae pv. oryzae PXO99A). In words: MST. The conditions noted are these: MST: 50 mM Tris pH 7.5, 150 mM NaCl, 10 mM MgCl2, 0.05% Tween 20, 25 C, buffer not given.

What is called Kd is the constant that tells how readily two partners part at equilibrium. A low value points to tighter binding. In turn, xanfur promoter, FAM-labeled yielded a Kd of 0.687 nM.
